Assay results published in patent publication US11110158B2, “Prostate-associated antigens and vaccine-based immunotherapy regimens” (Pfizer Inc., priority 2012, dated 2021).

B1: PSA membrane-bound: PSA amino acids 25-261 linked to human PSMA transmembrane domain (aa 15-54), SEQ ID NO: 19 (protein)
chain: MASARRPRWLCAGALVLAGGFFLLGFLFGWFIKSSNEATNITPGIVGGWECEKHSQPWQVLVASRGRAVCGGVLVHPQWVLTAAHCIRNKSVILLGRHSLFHPEDTGQVFQVSHSFPHPLYDMSLLKNRFLRPGDDSSHDLMLLRLSEPAELTDAVKVMDLPTQEPALGTTCYASGWGSIEPEEFLTPKKLQCVDLHVISNDVCAQVHPQKVTKFMLCAGRWTGGKSTCSGDSGGPLVCNGVLQGITSWGSEPCALPERPSLYTKVVHYRKWIKDTIVANP
B2: PSA secreted: native full length human PSA (amino acids 1-261), SEQ ID NO: 15 (protein, listed as Homo sapiens)
chain: MASWVPVVFLTLSVTWIGAAPLILSRIVGGWECEKHSQPWQVLVASRGRAVCGGVLVHPQWVLTAAHCIRNKSVILLGRHSLFHPEDTGQVFQVSHSFPHPLYDMSLLKNRFLRPGDDSSHDLMLLRLSEPAELTDAVKVMDLPTQEPALGTTCYASGWGSIEPEEFLTPKKLQCVDLHVISNDVCAQVHPQKVTKFMLCAGRWTGGKSTCSGDSGGPLVCNGVLQGITSWGSEPCALPERPSLYTKVVHYRKWIKDTIVANP

Tested on: PSA
Test: Sandwich ELISA, anti-PSA antibody response in vaccinated mice
Format: in vivo, mouse
Details: Table 15; for # of positive: mice with anti-PSA antibody response / mice tested

Molecule	ELISA (OD = 1.0) Average (SD) (anti-PSA antibody titer at OD of 1.0)	# of positive
B1	4838 (835)	6/6
B2	–	2/6
